Laboratory results reported in publication PMC7716884.

Biological target: insulin lispro
Assay: SEC-MALS

- stoichiometry N: 6
Substance: insulin lispro (ligand)
